Among the data in patent US20240123029A1 are EC50 (read off the curve) values, retold here.

The assay addresses Recombinant human mannose binding lectin (MBL) (human) (UniProt P11226).

Sequence of Recombinant human mannose binding lectin (MBL) (human) (P11226 21-248 limits assumed): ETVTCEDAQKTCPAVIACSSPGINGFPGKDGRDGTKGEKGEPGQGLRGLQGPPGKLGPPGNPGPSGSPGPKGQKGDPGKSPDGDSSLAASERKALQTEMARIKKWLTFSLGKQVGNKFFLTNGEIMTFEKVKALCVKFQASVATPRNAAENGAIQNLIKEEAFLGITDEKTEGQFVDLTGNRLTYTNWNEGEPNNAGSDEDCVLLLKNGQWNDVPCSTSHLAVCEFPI

In the case of “Biotinylated SARS-CoV-2 S protein, His Tag, active trimer (from UniProt P0DTC2 16-1213) (other; other documents disagree on this pair)”, the EC50 (read off the curve) was determined as 3 nM.

A word on the EC50 (read off the curve): it is the concentration that produces a half-maximal response.
